Data: paper PMC9029656

B1: reference wild-type (WT) peptide (unmodified NW peptide) prohibitin 1 (PHB1), endogenous in human blood monocytes [human (endogenous in blood monocytes)] (parent)
chain 1: NWYLPWLGTNDW
chain 2: MAAKVFESIGKFGLALAVAGGVVNSALYNVDAGHRAVIFDRFRGVQDIVVGEGTHFLIPWVQKPIIFDCRSRPRNVPVITGSKDLQNVNITLRILFRPVASQLPRIFTSIGEDYDERVLPSITTEILKSVVARFDAGELITQRELVSRQVSDDLTERAATFGLILDDVSLTHLTFGKEFTEAVEAKQVAQQEAERARFVVEKAEQQKKAAIISAEGDSKAAELIANSLATAGDGLIELRKLEAAEDIAYQLSRSRNITYLPAGQSVLLQLPQ

Variants of: B1
Assay: flow cytometry competition assay on monocytes
Settings: with prohibitin 1 (PHB1)
[1] = competitor 2.5 µg/ml, NW peptide 0.05 µg/mL, parent: 50, read off a plot
[2] = competitor 5 µg/ml, NW peptide 0.05 µg/mL, parent: 82, read off a plot
[3] = competitor 10 µg/ml, NW peptide 0.05 µg/mL, parent: 92, read off a plot
[4] = competitor 20 µg/ml, NW peptide 0.05 µg/mL, parent: 95, read off a plot
[5] = competitor 2.5 µg/ml, experimental conditions as in Figure 7, parent: 45, read off a plot
[6] = competitor 5 µg/ml, experimental conditions as in Figure 7, parent: 60, read off a plot
[7] = competitor 10 µg/ml, experimental conditions as in Figure 7, parent: 85, read off a plot
[8] = competitor 20 µg/ml, experimental conditions as in Figure 7, parent: 93, read off a plot

Variant	screen value [1]	screen value [2]	screen value [3]	screen value [4]	screen value [5]	screen value [6]	screen value [7]	screen value [8]
chain 1 NWYLPALGTNDW [chain 1 W6A]	0%	0%	8%	12%	–	–	–	–
chain 1 NWYVPWVGTNDW [chain 1 L4V L7V]	–	–	–	–	50%	55%	86%	95%
chain 1 NWYLAWLGTNDW [chain 1 P5A]	0%	12%	30%	65%	–	–	–	–
chain 1 NWYLPWLATNDW [chain 1 G8A]	0%	10%	45%	65%	–	–	–	–
chain 1 NWYAPWLGTNDW [chain 1 L4A]	0%	0%	2.5%	0%	–	–	–	–
chain 1 NWALPWLGTNDW [chain 1 Y3A]	23%	54%	56%	68%	–	–	–	–
chain 1 NYYLPYLGTNDY [chain 1 W2Y W6Y W12Y]	–	–	–	–	5%	–	–	3%
chain 1 NFYLPFLGTNDF [chain 1 W2F W6F W12F]	–	–	–	–	–	7%	3%	4%
chain 1 NAYLPWLGTNDW [chain 1 W2A]	0%	0%	0%	2.5%	–	–	–	–
chain 1 AWYLPWLGTNDW [chain 1 N1A]	30%	45%	67%	90%	–	–	–	–
chain 1 NWYLPWAGTNDW [chain 1 L7A]	0%	0%	0%	2.5%	–	–	–	–
chain 1 NWYLPWLGTNDA [chain 1 W12A]	0%	9%	10%	8%	–	–	–	–
chain 1 NWYLPWLGANDW [chain 1 T9A]	10%	20%	60%	80%	–	–	–	–
chain 1 NWYLPWLGTNAW [chain 1 D11A]	47%	80%	85%	98%	–	–	–	–
chain 1 NWYLPWLGTADW [chain 1 N10A]	56%	70%	86%	95%	–	–	–	–
